Read-outs that look alike come from different tables or passages of the source. Values belong to the binder of their own block, whether it stands above or below them. Where no end group is shown, it is not given here.
What was measured:
[1] = target: T1, IL-18Rα-Fc (CD218a protein, Fc tag; ECD 19-329; ACROBiosystems, Inc, Cat. No. IL1-H5259) (UniProt Q13478 19-329); test: ELISA
T1 chain: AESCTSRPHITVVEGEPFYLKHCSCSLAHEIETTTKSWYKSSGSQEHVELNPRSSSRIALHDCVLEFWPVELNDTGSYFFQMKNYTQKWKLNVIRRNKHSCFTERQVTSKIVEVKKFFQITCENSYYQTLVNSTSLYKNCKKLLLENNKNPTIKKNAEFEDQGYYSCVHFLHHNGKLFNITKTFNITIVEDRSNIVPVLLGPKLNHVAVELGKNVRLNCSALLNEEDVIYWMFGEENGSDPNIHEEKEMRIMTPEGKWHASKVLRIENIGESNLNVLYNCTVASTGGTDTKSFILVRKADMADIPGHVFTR

[2] = target: T1, IL-18Rα-Fc (CD218a protein, Fc tag; ECD …); test: competition ELISA
[3] = target: T1, IL-18Rα-Fc (CD218a protein, Fc tag; ECD …); test: ELISA
[4] = target: T1, IL-18Rα-Fc (CD218a protein, Fc tag; ECD …); test: competition ELISA; tracer 7C06(bn1713)/NA-HRP 75 nM

Binder: GGREDMECFWSPGQVWCIPSYLGG [10D09]
IC50 [2]: 11 nM

Binder: GGFFECFYSPGHEWCIPSGG [7C06]
IC50 [4]: 350 nM

More lines, now with the values ahead:

EC50 [1]: 0.26 nM
Binder: GGFFECFYSPGHEWCIPSGG-biotin (cysteine pairing not given here) [biotinylated 7C06]

EC50 [1]: 0.16 nM
Binder: GGICWVPFHYLDELMCTGG-biotin (cysteine pairing not given here) [biotinylated 4D07]

EC50 [3]: 0.11 nM
Binder: GGELCWRPFSFVDCEEGG-biotin (cysteine pairing not given here) [biotinylated alpha synthetic F1a Consensus Construct]
